Assay results from article PMC6380599 (PLoS Pathogens, 2019).

Target: T1, histidine tagged SFTSV Gn-Cκ (Gn ectodomain, strain Gangwon/Korea/2012) (SFTSV (Dabie bandavirus) strain …, UniProt U3GR55, strain)
T1 construct: source: HEK 293F or Expi293F, transfected, purified
Experiment: SPR; Biacore T200, […]; dissociation 5 min in PBS with 0.005% Tween20
Conditions: both partners purified

B1: Ab10 IgG1 antibody (antibody, V domains shown)
VH: EVQLVESGGGVVQPGRSLRLSCAASGFTFSGYGIHWVRQAPGKGLEWVALISYDGSNKYYADSVKGRFTISRDNSKNTLYLQMNSLRAEDTAVYYCAKDRDYFGSGFFDYWGQGTLVTVSS
VL: ELVMTQSPSSLSASVGDTVTITCRASQSIYTYLNWYHQTPGKAPKLLISAASSLQSGVPSRFSGSGSGTDFTLTISSLQPEDFATYYCQQYADVPVTFGGGTKLEIK
notes: also called Ab10 mAb; human IgG1 monoclonal antibody Ab10; source: HEK 293F, transfected, purified from culture supernatant (MabSelect)
Kd: 0.104 nM
koff: 7.7e-05 s⁻¹
kon: 740000 M⁻¹ s⁻¹
